Numbering of substitutions follows the chain as printed.
T1: Pepsinogen C (PGC) (human)
T1 chain: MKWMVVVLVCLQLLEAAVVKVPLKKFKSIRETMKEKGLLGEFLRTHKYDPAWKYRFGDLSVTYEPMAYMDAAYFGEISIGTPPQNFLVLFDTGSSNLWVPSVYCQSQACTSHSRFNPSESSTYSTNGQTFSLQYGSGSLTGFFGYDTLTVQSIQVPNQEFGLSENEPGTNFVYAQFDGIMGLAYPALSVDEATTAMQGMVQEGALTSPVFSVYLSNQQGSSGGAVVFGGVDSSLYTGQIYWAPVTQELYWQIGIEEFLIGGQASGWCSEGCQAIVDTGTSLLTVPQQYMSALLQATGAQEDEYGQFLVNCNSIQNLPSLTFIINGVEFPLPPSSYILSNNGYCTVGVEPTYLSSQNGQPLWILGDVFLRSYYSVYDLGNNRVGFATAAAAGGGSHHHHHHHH

B1: mAb 75 (antibody, V domains shown)
VH: QIQLVQSGPELKKPGETVKISCKASGYTFTNYGMNWVKQAPGKGLKWMGLINTYTRGPTFADDFKGRFAFSVETSANTAYLQINNLKTEDTATYFCARRGEYYGSSYVDYWGQGTTLTVSS
VL: DIQMTQITSSLSASLGDRVTISCRASQDIMHFLNWYQQKPDGTVKLLIYYTSRLHSGVPSRFSGSGSGTDYSLTITNLEPEDIATYYCQQHSNLPPTFGGGTKLEIK
B2: mAb 11 (antibody, V domains shown)
VH: QVQLQQPGTELVKPGASVKLSCKASGYTFTNYWMHWVKQRPGQGLEWIGNINPFNGATNYNDNFKTKATLTVDKSSSTAYMHLSSLTSEDSAVYYCARYDYSKYYAMDYWGQGTSVTVSS
VL: ENVLTQSPAIMAASPGDKVTMTCSASSSINSAHFHWYQQKPGTSPKLWIYRTSNLASGVPARFSGRGSGTSYSLTISSMEAADAATYYCQQWSDYPWTFGGGTKLEIR
B3: mAb 27 (antibody, V domains shown)
VH: QIQLVQSGPELKKPGETVKISCKASGYTFTNYGMNWVKQAPGKGLKWIGWINTYTGDPTYADDFKGRFAFSLETSASNGYLQIDNLKKEDTATYFCARRDIFAMDYWGQGTSVTVSS
VL: DIQMTQTTSSLSASLGDRVTITCRASQDIMKYLHWYQQKPDGTIKLLFYYTSRLHSGVPSRFSGSGSGTDYSLTISNLEQEDIATYFCQQDVKYPWTFGGGTKLEIK
B4: mAb 22 (antibody, V domains shown)
VH: B3 VH
VL: B3 VL with F48I
B5: mAb 123 (antibody, V domains shown)
VH: B3 VH with A24G, I48M, F68I, N78T, G79A, K88N
VL: B3 VL with I44V, F48I, V92I

Molecular target: T1, Pepsinogen C (PGC)
Test: SPR, 37C, order of magnitude only

Which Kd does the source give for B1 here?
Its Kd is roughly 0.1 nM.

Which Kd does the source give for B2 here?
The Kd was roughly 0.1 nM.

Which Kd does the source give for B3 here?
The Kd was roughly 0.1 nM.

For B4, which Kd is on record?
The Kd was roughly 0.01 nM.

With B5 as the binder, how does the Kd read?
The Kd was roughly 0.1 nM.

Reference: patent US20260365759 (published 2026)
